Laboratory results: publication PMC10397247
Read-outs that look alike come from different tables or passages of the source. One block for each binder: values may come before it.

Key:
Assay in all cases: two-hybrid library CCNG1;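 also: natural log of median RNA to DNA barcode read ratio; higher means stronger binding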
P7mS = biological target: T1, P7mS
T1 chain: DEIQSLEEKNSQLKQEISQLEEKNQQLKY

P8mS = biological target: T2, P8mS
T2 chain: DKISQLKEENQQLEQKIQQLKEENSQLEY

P9mS = biological target: T3, P9mS
T3 chain: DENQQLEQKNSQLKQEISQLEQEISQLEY

4H717-bA = biological target: T4, 4H717-bA
T4 chain: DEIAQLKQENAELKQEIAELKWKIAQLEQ

4H918-bA = biological target: T5, 4H918-bA
T5 chain: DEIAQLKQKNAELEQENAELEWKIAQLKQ

4H3855-bA = biological target: T6, 4H3855-bA
T6 chain: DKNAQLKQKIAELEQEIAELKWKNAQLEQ

4H4001-bA = biological target: T7, 4H4001-bA
T7 chain: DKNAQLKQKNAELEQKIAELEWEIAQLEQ

4H338-bA = biological target: T8, 4H338-bA
T8 chain: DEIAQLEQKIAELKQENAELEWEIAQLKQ

4H953-bA = biological target: T9, 4H953-bA
T9 chain: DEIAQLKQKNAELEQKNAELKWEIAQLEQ

4H3782-bA = biological target: T10, 4H3782-bA
T10 chain: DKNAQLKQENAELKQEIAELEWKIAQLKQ

4H687-bA = biological target: T11, 4H687-bA
T11 chain: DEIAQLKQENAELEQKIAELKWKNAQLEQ

4H967-bA = biological target: T12, 4H967-bA
T12 chain: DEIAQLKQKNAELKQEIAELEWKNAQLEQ

O15-bH = biological target: T13, O15-bH
T13 chain: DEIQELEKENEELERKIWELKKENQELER

4H607-bA = biological target: T14, 4H607-bA
T14 chain: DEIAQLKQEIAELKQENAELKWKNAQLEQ

4H454-bA = biological target: T15, 4H454-bA
T15 chain: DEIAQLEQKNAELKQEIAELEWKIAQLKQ

4H908-bA = biological target: T16, 4H908-bA
T16 chain: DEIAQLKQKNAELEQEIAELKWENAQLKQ

4H3427-bA = biological target: T17, 4H3427-bA
T17 chain: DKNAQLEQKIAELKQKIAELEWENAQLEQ

4H883-bA = biological target: T18, 4H883-bA
T18 chain: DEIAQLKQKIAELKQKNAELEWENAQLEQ

4H568-bA = biological target: T19, 4H568-bA
T19 chain: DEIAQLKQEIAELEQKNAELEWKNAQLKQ

4H797-bA = biological target: T20, 4H797-bA
T20 chain: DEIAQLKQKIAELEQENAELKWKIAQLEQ

4H754-bA = biological target: T21, 4H754-bA
T21 chain: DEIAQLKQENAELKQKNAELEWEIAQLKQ

4H72-bA = biological target: T22, 4H72-bA
T22 chain: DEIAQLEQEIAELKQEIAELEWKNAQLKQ

4H4073-bA = biological target: T23, 4H4073-bA
T23 chain: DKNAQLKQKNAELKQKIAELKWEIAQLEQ

4H683-bA = biological target: T24, 4H683-bA
T24 chain: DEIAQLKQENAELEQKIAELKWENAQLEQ

4H457-bA = biological target: T25, 4H457-bA
T25 chain: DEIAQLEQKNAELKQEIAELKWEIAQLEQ

4H3926-bA = biological target: T26, 4H3926-bA
T26 chain: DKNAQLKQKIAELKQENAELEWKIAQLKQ

4H575-bA = biological target: T27, 4H575-bA
T27 chain: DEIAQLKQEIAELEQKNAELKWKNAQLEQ

4H968-bA = biological target: T28, 4H968-bA
T28 chain: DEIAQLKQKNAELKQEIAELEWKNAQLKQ

4H855-bA = biological target: T29, 4H855-bA
T29 chain: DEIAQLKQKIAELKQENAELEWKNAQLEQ

P7bH1 = biological target: T30, P7bH1
T30 chain: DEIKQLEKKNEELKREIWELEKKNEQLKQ

4H346-bA = biological target: T31, 4H346-bA
T31 chain: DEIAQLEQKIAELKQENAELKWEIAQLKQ

O15-bN = biological target: T32, O15-bN
T32 chain: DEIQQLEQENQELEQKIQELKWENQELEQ

4H780-bA = biological target: T33, 4H780-bA
T33 chain: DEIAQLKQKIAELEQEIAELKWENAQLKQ

O2-bN = biological target: T34, O2-bN
T34 chain: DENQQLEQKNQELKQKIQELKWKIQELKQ

O4-bN = biological target: T35, O4-bN
T35 chain: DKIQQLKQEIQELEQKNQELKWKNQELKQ

O16-bN = biological target: T36, O16-bN
T36 chain: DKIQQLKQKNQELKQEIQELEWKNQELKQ

O7-bN = biological target: T37, O7-bN
T37 chain: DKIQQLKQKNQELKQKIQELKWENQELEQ

O3-bN = biological target: T38, O3-bN
T38 chain: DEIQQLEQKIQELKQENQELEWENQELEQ

O8-bN = biological target: T39, O8-bN
T39 chain: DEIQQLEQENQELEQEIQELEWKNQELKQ

O5-bN = biological target: T40, O5-bN
T40 chain: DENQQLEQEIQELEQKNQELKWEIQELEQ

O9-bN = biological target: T41, O9-bN
T41 chain: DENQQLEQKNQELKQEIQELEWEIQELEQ

O6-bN = biological target: T42, O6-bN
T42 chain: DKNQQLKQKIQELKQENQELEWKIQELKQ

4H3277-bA = biological target: T43, 4H3277-bA
T43 chain: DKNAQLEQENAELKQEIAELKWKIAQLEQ

4H2692-bA = biological target: T44, 4H2692-bA
T44 chain: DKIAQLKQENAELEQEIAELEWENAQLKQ

4H348-bA = biological target: T45, 4H348-bA
T45 chain: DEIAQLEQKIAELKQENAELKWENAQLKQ

4H2839-bA = biological target: T46, 4H2839-bA
T46 chain: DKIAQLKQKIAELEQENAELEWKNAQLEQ

4H492-bA = biological target: T47, 4H492-bA
T47 chain: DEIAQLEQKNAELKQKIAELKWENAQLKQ

4H2717-bA = biological target: T48, 4H2717-bA
T48 chain: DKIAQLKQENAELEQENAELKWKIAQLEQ

4H2588-bA = biological target: T49, 4H2588-bA
T49 chain: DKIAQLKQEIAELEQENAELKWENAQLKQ

4H477-bA = biological target: T50, 4H477-bA
T50 chain: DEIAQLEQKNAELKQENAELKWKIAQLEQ

4H319-bA = biological target: T51, 4H319-bA
T51 chain: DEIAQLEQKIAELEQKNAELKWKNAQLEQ

4H2503-bA = biological target: T52, 4H2503-bA
T52 chain: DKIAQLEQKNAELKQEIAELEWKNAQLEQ

4H40-bA = biological target: T53, 4H40-bA
T53 chain: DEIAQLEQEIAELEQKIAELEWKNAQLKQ

4H3162-bH = biological target: T54, 4H3162-bH
T54 chain: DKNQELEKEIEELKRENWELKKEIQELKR

4H2915-bA = biological target: T55, 4H2915-bA
T55 chain: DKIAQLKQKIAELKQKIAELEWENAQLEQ

4H741-bA = biological target: T56, 4H741-bA
T56 chain: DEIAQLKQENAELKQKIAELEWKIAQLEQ

4H3057-bA = biological target: T57, 4H3057-bA
T57 chain: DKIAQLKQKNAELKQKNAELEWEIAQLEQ

B2: 4H338-bA (peptide)
chain: DEIAQLEQKIAELKQENAELEWEIAQLKQ
- interaction score (4H717-bA): -0.573
- interaction score (4H918-bA): -1.39
- interaction score (4H3855-bA): -0.445
- interaction score (4H4001-bA): 0.217
- interaction score (4H338-bA): 0.363
- interaction score (4H953-bA): -0.0976
- interaction score (4H3782-bA): -0.133
- interaction score (4H687-bA): -1.18
- interaction score (4H967-bA): 0.424
- interaction score (O15-bH): 0.0935
- interaction score (4H607-bA): -0.707
- interaction score (4H454-bA): 2.01
- interaction score (4H908-bA): -0.695
- interaction score (4H3427-bA): 0.0707
- interaction score (4H883-bA): -0.973
- interaction score (4H568-bA): 0.415
- interaction score (4H797-bA): -0.317
- interaction score (4H754-bA): -0.95
- interaction score (4H72-bA): -0.139

B3: 4H3427-bA (peptide)
chain: DKNAQLEQKIAELKQKIAELEWENAQLEQ
- interaction score (4H4073-bA): 0.792
- interaction score (4H683-bA): -0.996
- interaction score (4H717-bA): -1.4
- interaction score (4H457-bA): -1.11
- interaction score (4H3926-bA): -0.817
- interaction score (4H575-bA): 0.0418
- interaction score (4H918-bA): -0.926
- interaction score (4H3855-bA): -0.947
- interaction score (4H4001-bA): -0.314
- interaction score (4H953-bA): -1.25
- interaction score (4H3782-bA): -0.499
- interaction score (4H687-bA): -1.79
- interaction score (4H967-bA): -1.02
- interaction score (4H968-bA): -0.904
- interaction score (4H607-bA): -0.868
- interaction score (4H855-bA): -1.16
- interaction score (4H454-bA): -0.617
- interaction score (4H908-bA): -0.823
- interaction score (4H3427-bA): 0.0593
- interaction score (4H883-bA): -0.625
- interaction score (4H568-bA): 0.738
- interaction score (4H797-bA): -0.827
- interaction score (4H754-bA; mean of both orientations): -0.767
- interaction score (P7bH1): -0.632
- interaction score (4H346-bA): -1.15
- interaction score (O15-bN): -0.0232
- interaction score (4H780-bA): -1.09
- interaction score (4H72-bA): 0.449

B6: 4H2503-bA (peptide)
chain: DKIAQLEQKNAELKQEIAELEWKNAQLEQ
- interaction score (4H3277-bA): -0.659
- interaction score (4H2692-bA): 0.466
- interaction score (4H348-bA): -1.13
- interaction score (4H2839-bA): -0.791
- interaction score (4H492-bA): -0.351
- interaction score (4H2717-bA): -0.684
- interaction score (4H2588-bA): -0.447
- interaction score (4H687-bA): 1.12
- interaction score (4H477-bA): -0.816
- interaction score (4H319-bA): -1.63
- interaction score (4H2503-bA): -0.591
- interaction score (4H40-bA): -0.475
- interaction score (4H3162-bH): -2.22
- interaction score (4H2915-bA): -0.804
- interaction score (4H741-bA): -0.407
- interaction score (4H3057-bA): -0.42

Other lines, results leading:

- interaction score (P7mS): -0.531
- interaction score (P8mS): 1.28
- interaction score (P9mS): 0.076
B1: P7mS (peptide)
chain: DEIQSLEEKNSQLKQEISQLEEKNQQLKY

- interaction score (O2-bN): 0.0465
- interaction score (O4-bN): -1.01
- interaction score (O16-bN): 1.69
- interaction score (O7-bN): 1.78
- interaction score (O3-bN): 0.477
- interaction score (O8-bN): -1.68
- interaction score (O5-bN): -0.308
- interaction score (O9-bN): -0.149
- interaction score (O15-bN): -0.117
- interaction score (O6-bN): 0.642
B4: O14-bN (peptide)
chain: DENQQLEQEIQELEQENQELEWKIQELKQ

- interaction score (O2-bN): -1.5
- interaction score (O4-bN): 0.275
- interaction score (O16-bN): 1.92
- interaction score (O7-bN): 1.29
- interaction score (O3-bN): -0.189
- interaction score (O8-bN): -1.62
- interaction score (O5-bN): -0.822
- interaction score (O9-bN): -0.491
- interaction score (O15-bN): -0.195
- interaction score (O6-bN): -0.314
B5: O15-bN (peptide)
chain: DEIQQLEQENQELEQKIQELKWENQELEQ

- interaction score (O2-bN): -1.79
- interaction score (O4-bN): -2.32
- interaction score (O16-bN): -1.23
- interaction score (O7-bN): -1.39
- interaction score (O3-bN): -0.827
- interaction score (O8-bN): -1.07
- interaction score (O5-bN): -2.42
- interaction score (O9-bN): -1.61
- interaction score (O15-bN): -0.801
- interaction score (O6-bN): -0.733
B7: O13-bN (peptide)
chain: DKNQQLKQKIQELKQKNQELKWEIQELEQ
